Experimental data: the supplement of paper PMC10567573

B1: EPB41L3 (parent)
chain: SDYISEFRFAPNHTKELEDKVIEL
B2: FCHO1 (parent)
chain: FSDPSQSDPETKDFWLNMAALTEA

Variants of: B1
Test: protein stability index of a GFP-peptide fusion (GPS, HEK-293T) (PSI 1-6); higher = more stable
Conditions: c terminus: a fixed tail appended
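Note: lentivirally expressed fusions sorted by FACS into six bins by GFP to DsRed ratio, PSI derived from sequencing read proportions per bin multiplied by bin number.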

Protein stability index, by site and new letter:
D2: G 1.45 | E 2.48 | A 2.21 | F 2.02 | H 1.85 | C 2.46
S1: I 1.71 | N 1.94 | A 2.38 | M 1.92 | C 1.75 | L 2.19 | W 1.76 | R 1.85 | Q 2.45 | E 2.15 | D 2.25 | V 1.74 | K 1.72 | H 2.1 | Y 2.38 | P 2.71 | F 1.96 | T 2.01 | G 2.12

Variants of: B2
Test: as above
Conditions: c terminus: a fixed tail appended

Protein stability index of substitutions, site by site:
F1: N 4.52 | L 4.25 | D 5.36 | C 4.02 | T 4.87 | P 4.8 | I 4.11 | M 4.18
D8: N 1.95 | H 2.21 | I 2.9 | V 3.11 | M 3.04 | Q 2.24 | W 1.86 | F 2.37 | Y 2.23 | P 2.93 | R 2.57 | K 2.32
P9: Y 2.65 | T 3.19 | Q 3.27 | R 2.8
A24: R 3.38 | N 3.23 | S 3.4 | M 2.62 | F 2.56 | T 2.52 | I 1.92
D13: I 1.75 | G 2.96 | N 1.27 | Y 2.25 | E 3.62 | T 2.37 | H 2.02
W15: H 4.73 | M 4.48 | T 4.38 | N 4.79 | F 4.3 | C 4.62 | S 4.82
D3: Q 2.08 | W 2.72 | C 2.23 | I 1.71
L16: P 4.08 | V 2.22 | T 2.56 | C 2.1 | E 4.87 | D 5.04 | M 2.55
N17: Q 3.39 | L 2.43 | D 1.85 | H 2.74 | R 3.06 | P 1.94 | E 3.49
S2: G 2.32 | H 1.99 | Q 2.4 | I 2.8 | P 3.02 | F 2.89
S7: N 2.86 | I 2.38 | A 3.37 | H 3.39 | K 2.8 | F 2.63 | W 2 | M 3.55
T11: L 2.13 | I 2.7 | G 3.04 | R 2.69 | W 1.74 | F 2.09 | S 2.98 | C 2.92 | H 2.87
F14: W 3.87 | P 4.58 | L 3.69 | A 4.17 | T 4.57 | G 4.83
A19: M 2.54 | Y 2.7 | K 2.78 | D 2.53
E23: H 2.17 | F 1.59 | D 2.75 | I 1.9 | S 2.23 | R 3.31 | W 2.04 | V 2.24
E10: P 2.66 | V 2.63 | K 2.04 | A 2.5
Q6: R 2.44 | P 3.16 | I 2.4 | V 2.85 | W 1.75 | G 2.25
M18: V 2.56 | H 3.22 | T 2.62 | Y 3.59
S5: M 3.35 | F 2.27 | T 2.84 | N 2.79
P4: Q 2.67 | W 1.85 | L 2.45 | D 3.49 | T 2.23 | G 2.38
A20: Q 2.63 | F 2.24 | D 3.25 | T 2.71 | S 2.94
L21: S 2.62 | K 2.95 | W 1.73 | V 2.58 | C 2.4
K12: V 2.86 | E 3.6 | G 3.23 | R 2.65
